From patent publication US20150166606A1 (RA PHARMACEUTICALS, published 2015)
Bridge positions count the residues as written; N and C are the ends. Square brackets hold non-standard residues; d marks the D form. Ends that are not written are not given here. * marks the point of attachment. mXylyl = xylyl linker from dibromoxylene joining the two cysteines; des‑NH2 = missing amino-terminal amine group; Phg = N[C@H](C(=O)O)c1ccccc1; Tle = CC(C)(C)[C@H](N)C(=O)O; Heptanoyl = CCCCCCC(=O)*; Nva = CCC[C@H](N)C(=O)O

T1: Factor VIIa (Enzyme Research Laboratories) (human, UniProt P08709 61-466)
T1 sequence (looked up): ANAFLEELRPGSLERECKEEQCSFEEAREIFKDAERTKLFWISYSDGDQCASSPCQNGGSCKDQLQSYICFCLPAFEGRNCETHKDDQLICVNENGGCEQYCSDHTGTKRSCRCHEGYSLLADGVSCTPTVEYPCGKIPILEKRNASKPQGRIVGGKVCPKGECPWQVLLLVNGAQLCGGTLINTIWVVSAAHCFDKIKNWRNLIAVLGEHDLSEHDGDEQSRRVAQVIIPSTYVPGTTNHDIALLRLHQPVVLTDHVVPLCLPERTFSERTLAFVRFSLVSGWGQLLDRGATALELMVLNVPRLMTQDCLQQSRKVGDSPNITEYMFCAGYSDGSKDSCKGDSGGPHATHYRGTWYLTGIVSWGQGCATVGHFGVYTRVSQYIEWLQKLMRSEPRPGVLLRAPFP

T2: tissue kallikrein KLK13 (R&D Systems) (human, UniProt Q9UKR3 17-277, limits assumed)
T2 sequence (looked up): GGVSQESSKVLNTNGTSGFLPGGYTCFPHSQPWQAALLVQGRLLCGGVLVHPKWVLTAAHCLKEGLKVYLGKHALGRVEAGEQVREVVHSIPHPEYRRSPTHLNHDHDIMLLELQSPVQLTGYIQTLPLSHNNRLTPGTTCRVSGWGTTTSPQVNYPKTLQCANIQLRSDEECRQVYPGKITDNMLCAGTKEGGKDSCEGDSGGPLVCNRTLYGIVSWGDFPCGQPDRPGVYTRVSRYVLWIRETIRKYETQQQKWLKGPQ

T3: Factor XIIa (Enzyme Research Laboratories) (human, UniProt P00748 20-615, limits assumed)
T3 sequence (looked up): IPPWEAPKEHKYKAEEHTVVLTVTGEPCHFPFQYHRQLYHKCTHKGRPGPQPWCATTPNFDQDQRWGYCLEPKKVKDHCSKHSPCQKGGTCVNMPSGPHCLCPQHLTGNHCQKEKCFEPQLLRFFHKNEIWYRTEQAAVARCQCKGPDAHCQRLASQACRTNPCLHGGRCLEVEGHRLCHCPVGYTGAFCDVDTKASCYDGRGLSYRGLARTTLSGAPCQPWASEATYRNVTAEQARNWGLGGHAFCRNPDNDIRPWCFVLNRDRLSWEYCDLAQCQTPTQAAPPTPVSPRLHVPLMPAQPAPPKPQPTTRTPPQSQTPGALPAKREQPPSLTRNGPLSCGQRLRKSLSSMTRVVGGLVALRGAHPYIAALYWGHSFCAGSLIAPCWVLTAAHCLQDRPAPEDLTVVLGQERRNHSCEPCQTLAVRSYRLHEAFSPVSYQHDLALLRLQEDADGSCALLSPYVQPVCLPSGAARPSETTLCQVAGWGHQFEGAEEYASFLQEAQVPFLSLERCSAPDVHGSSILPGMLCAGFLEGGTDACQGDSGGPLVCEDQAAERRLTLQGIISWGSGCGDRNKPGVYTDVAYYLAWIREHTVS

B1: R2051 (peptide)
peptide: {des‑NH2}-CESICRV-NH2
modifications: linker 1-5 via mXylyl; not fully specified (residue 1); printed as [mXylyl(1,5)](des-NH2)C-ESICRV-NH2
B2: R2047 (peptide)
peptide: Ac-CASICRV-NH2
modifications: linker 1-5 via mXylyl; not fully specified (residue 2); printed as [mXylyl(1,5)]Ac-C-a-SICRV-NH2

Biological target: T4, Activated human plasma kallikrein (Enzyme Research Laboratories, HPKa 1303) (human, UniProt P03952 20-638)
Test: cell-based or functional assay

T4 sequence (P03952 20-638 limits assumed): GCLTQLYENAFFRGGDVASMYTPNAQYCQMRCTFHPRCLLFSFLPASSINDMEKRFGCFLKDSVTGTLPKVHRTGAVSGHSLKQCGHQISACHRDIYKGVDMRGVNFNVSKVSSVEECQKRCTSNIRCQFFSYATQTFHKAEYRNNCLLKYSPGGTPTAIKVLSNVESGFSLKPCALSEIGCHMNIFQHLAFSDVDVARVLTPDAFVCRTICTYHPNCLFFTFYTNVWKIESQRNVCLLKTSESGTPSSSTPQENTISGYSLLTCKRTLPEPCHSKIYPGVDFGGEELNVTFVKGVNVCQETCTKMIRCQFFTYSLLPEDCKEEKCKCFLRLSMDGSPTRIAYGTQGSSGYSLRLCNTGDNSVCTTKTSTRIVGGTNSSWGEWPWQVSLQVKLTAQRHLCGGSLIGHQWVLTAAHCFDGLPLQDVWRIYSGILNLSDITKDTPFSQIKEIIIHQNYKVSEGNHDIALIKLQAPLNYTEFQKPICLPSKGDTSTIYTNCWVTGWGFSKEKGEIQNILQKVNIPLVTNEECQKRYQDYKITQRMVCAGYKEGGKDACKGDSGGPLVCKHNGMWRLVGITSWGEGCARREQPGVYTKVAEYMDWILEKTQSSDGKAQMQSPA

Row | Avg. IC50 | Binder
1 | 0.0034 µM | MCNYWSPWTECSA-NH2 (cysteine pairing not given here) [R2104]
2 | 0.0031 µM | MCNYWSPWTECSR-NH2 (linker 2-11 via mXylyl) [R2003]

Biological target: T1, Factor VIIa (Enzyme Research …)
Test: cell-based or functional assay

Row | Factor VIIa IC50 | Binder
3 | > 100 µM | MCESICRV-NH2 (linker 2-6 via mXylyl) [R2006]
4 | > 100 µM | B1
5 | > 100 µM | Ac-CAS[Phg]CR[Tle]-NH2 (linker 1-5 via mXylyl) [R2036]
6 | > 17.9 µM | Heptanoyl-CESICRV-NH2 (linker 1-5 via mXylyl) [R2041]
7 | > 100 µM | MCNYWSPWTECSA-NH2 (cysteine pairing not given here) [R2104]
8 | > 100 µM | MCESICR[Tle]-NH2 (linker 2-6 via mXylyl) [R2010]
9 | > 100 µM | [Nva]CEP[Phg]CR[Tle]-NH2 (linker 2-6 via mXylyl) [R2030]
10 | > 100 µM | B2

Biological target: mouse plasma kallikrein (R&D Systems) (mouse, UniProt P26262 20-638)
Test: cell-based or functional assay

Chain of mouse plasma kallikrein (R&D Systems) (P26262 20-638 limits assumed): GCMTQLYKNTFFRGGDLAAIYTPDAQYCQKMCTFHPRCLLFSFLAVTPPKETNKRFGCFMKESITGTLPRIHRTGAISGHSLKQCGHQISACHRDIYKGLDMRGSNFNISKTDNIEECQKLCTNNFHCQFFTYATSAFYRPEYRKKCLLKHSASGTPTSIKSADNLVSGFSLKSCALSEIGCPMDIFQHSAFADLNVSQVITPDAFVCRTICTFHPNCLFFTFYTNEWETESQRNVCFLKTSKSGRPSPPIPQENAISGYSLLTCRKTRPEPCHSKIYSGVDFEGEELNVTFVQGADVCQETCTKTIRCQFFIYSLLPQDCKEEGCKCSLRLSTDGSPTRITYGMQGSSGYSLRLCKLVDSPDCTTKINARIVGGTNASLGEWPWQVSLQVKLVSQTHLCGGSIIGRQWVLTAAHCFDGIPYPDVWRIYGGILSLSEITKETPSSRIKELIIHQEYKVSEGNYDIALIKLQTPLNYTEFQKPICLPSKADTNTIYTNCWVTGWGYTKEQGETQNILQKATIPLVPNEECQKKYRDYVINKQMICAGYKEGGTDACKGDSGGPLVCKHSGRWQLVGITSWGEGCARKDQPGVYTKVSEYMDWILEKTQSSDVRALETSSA

Row | Mouse Kallikrein IC50 | Binder
11 | 0.042 µM | MCESICRV-NH2 (linker 2-6 via mXylyl) [R2006]
12 | 0.0193 µM | B1
13 | 0.0128 µM | Ac-CAS[Phg]CR[Tle]-NH2 (linker 1-5 via mXylyl) [R2036]
14 | 0.191 µM | Heptanoyl-CESICRV-NH2 (linker 1-5 via mXylyl) [R2041]
15 | 0.0112 µM | MCNYWSPWTECSA-NH2 (cysteine pairing not given here) [R2104]
16 | 0.0388 µM | MCESICR[Tle]-NH2 (linker 2-6 via mXylyl) [R2010]
17 | 0.0639 µM | [Nva]CEP[Phg]CR[Tle]-NH2 (linker 2-6 via mXylyl) [R2030]
18 | 0.0367 µM | B2

Biological target: Factor Xa (Enzyme Research Laboratories) (human, UniProt P00742 41-488, limits assumed)
Test: cell-based or functional assay

Chain of Factor Xa (Enzyme Research Laboratories) (P00742 41-488 limits assumed): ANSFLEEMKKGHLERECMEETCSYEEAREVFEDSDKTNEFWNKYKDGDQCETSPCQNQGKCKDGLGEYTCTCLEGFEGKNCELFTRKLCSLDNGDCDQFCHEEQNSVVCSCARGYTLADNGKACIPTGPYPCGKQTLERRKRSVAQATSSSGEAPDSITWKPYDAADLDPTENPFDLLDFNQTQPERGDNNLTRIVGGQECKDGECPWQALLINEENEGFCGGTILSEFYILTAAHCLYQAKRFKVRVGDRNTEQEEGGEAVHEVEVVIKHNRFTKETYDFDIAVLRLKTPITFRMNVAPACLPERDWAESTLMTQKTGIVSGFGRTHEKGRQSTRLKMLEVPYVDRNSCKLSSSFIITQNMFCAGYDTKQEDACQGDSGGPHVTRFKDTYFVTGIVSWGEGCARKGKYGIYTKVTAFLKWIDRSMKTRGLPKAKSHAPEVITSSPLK

Row | Factor Xa IC50 | Binder
19 | > 7 µM | MCESICRV-NH2 (linker 2-6 via mXylyl) [R2006]
20 | > 100 µM | B1
21 | > 7 µM | Ac-CAS[Phg]CR[Tle]-NH2 (linker 1-5 via mXylyl) [R2036]
22 | > 7 µM | Heptanoyl-CESICRV-NH2 (linker 1-5 via mXylyl) [R2041]
23 | > 100 µM | MCNYWSPWTECSA-NH2 (cysteine pairing not given here) [R2104]
24 | > 100 µM | MCESICR[Tle]-NH2 (linker 2-6 via mXylyl) [R2010]
25 | > 100 µM | [Nva]CEP[Phg]CR[Tle]-NH2 (linker 2-6 via mXylyl) [R2030]
26 | > 100 µM | B2

Biological target: T4, Activated human plasma kallikrein …
Test: cell-based or functional assay
Remark: another data set of the same source

Row | Human Kallikrein IC50 | Binder
27 | 0.025 µM | MCESICRV-NH2 (linker 2-6 via mXylyl) [R2006]
28 | 0.0129 µM | B1
29 | 0.0064 µM | Ac-CAS[Phg]CR[Tle]-NH2 (linker 1-5 via mXylyl) [R2036]
30 | 0.0242 µM | Heptanoyl-CESICRV-NH2 (linker 1-5 via mXylyl) [R2041]
31 | 0.0034 µM | MCNYWSPWTECSA-NH2 (cysteine pairing not given here) [R2104]
32 | 0.0099 µM | MCESICR[Tle]-NH2 (linker 2-6 via mXylyl) [R2010]
33 | 0.025 µM | [Nva]CEP[Phg]CR[Tle]-NH2 (linker 2-6 via mXylyl) [R2030]
34 | 0.0323 µM | B2

Biological target: Factor XIa (Enzyme Research Laboratories) (human, UniProt P03951 19-625)
Test: cell-based or functional assay

Chain of Factor XIa (Enzyme Research Laboratories) (P03951 19-625 limits assumed): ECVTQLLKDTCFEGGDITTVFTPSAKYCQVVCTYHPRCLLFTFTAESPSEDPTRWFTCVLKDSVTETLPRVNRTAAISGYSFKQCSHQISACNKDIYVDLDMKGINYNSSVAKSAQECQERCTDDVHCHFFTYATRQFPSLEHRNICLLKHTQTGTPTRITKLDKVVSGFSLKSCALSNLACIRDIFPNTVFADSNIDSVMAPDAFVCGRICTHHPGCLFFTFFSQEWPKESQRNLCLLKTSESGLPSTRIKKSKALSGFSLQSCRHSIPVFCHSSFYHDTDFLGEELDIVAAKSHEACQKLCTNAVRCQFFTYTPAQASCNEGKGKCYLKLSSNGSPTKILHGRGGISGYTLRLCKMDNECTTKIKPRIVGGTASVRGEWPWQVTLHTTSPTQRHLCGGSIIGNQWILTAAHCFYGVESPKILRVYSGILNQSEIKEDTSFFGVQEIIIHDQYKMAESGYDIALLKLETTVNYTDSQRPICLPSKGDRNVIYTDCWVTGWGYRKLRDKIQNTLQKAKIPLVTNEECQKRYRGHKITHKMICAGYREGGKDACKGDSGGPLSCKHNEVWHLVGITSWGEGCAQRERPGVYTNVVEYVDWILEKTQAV

Row | Factor XIa IC50 | Binder
35 | > 11.6 µM | MCESICRV-NH2 (linker 2-6 via mXylyl) [R2006]
36 | > 8.3 µM | B1
37 | > 4.8 µM | Ac-CAS[Phg]CR[Tle]-NH2 (linker 1-5 via mXylyl) [R2036]
38 | > 5.4 µM | Heptanoyl-CESICRV-NH2 (linker 1-5 via mXylyl) [R2041]
39 | > 5 µM | MCNYWSPWTECSA-NH2 (cysteine pairing not given here) [R2104]
40 | > 15 µM | MCESICR[Tle]-NH2 (linker 2-6 via mXylyl) [R2010]
41 | > 10.4 µM | [Nva]CEP[Phg]CR[Tle]-NH2 (linker 2-6 via mXylyl) [R2030]
42 | > 13.8 µM | B2

Biological target: T4, Activated human plasma kallikrein …
Test: cell-based or functional assay
Remark: another data set of the same source

Row | Avg. IC50 | Binder
43 | 0.0118 µM | MCESICRV-NH2 (linker 2-6 via mXylyl) [R2006]
44 | 0.0129 µM | B1
45 | 0.0064 µM | Ac-CAS[Phg]CR[Tle]-NH2 (linker 1-5 via mXylyl) [R2036]
46 | 0.0242 µM | Heptanoyl-CESICRV-NH2 (linker 1-5 via mXylyl) [R2041]
47 | 0.000501 µM | MCESICRVLRYSE-NH2 (linker 2-6 via mXylyl) [R2004]
48 | 0.0099 µM | MCESICR[Tle]-NH2 (linker 2-6 via mXylyl) [R2010]
49 | 0.025 µM | [Nva]CEP[Phg]CR[Tle]-NH2 (linker 2-6 via mXylyl) [R2030]
50 | 0.0174 µM | B2

Biological target: T4, Activated human plasma kallikrein …
Test: cell-based or functional assay
Remark: another data set of the same source

Row | Avg. IC50 | Binder
51 | 0.0031 µM | MCNYWSPWTECSR-NH2 (linker 2-11 via mXylyl) [R2003]
52 | 0.000501 µM | MCESICRVLRYSE-NH2 (linker 2-6 via mXylyl) [R2004]

Biological target: T2, tissue kallikrein KLK13 (R&D Systems)
Test: cell-based or functional assay

Row | KLK13 IC50 | Binder
53 | > 100 µM | MCESICRV-NH2 (linker 2-6 via mXylyl) [R2006]
54 | > 100 µM | B1
55 | > 100 µM | Ac-CAS[Phg]CR[Tle]-NH2 (linker 1-5 via mXylyl) [R2036]
56 | > 100 µM | Heptanoyl-CESICRV-NH2 (linker 1-5 via mXylyl) [R2041]
57 | > 100 µM | MCNYWSPWTECSA-NH2 (cysteine pairing not given here) [R2104]
58 | > 100 µM | MCESICR[Tle]-NH2 (linker 2-6 via mXylyl) [R2010]
59 | > 100 µM | [Nva]CEP[Phg]CR[Tle]-NH2 (linker 2-6 via mXylyl) [R2030]
60 | > 100 µM | B2

Biological target: thrombin (Enzyme Research Laboratories) (human, UniProt P00734 328-622)
Test: cell-based or functional assay

Row | Thrombin IC50 | Binder
61 | > 100 µM | MCESICRV-NH2 (linker 2-6 via mXylyl) [R2006]
62 | > 100 µM | B1
63 | > 100 µM | Ac-CAS[Phg]CR[Tle]-NH2 (linker 1-5 via mXylyl) [R2036]
64 | > 100 µM | Heptanoyl-CESICRV-NH2 (linker 1-5 via mXylyl) [R2041]
65 | > 100 µM | MCNYWSPWTECSA-NH2 (cysteine pairing not given here) [R2104]
66 | > 100 µM | MCESICR[Tle]-NH2 (linker 2-6 via mXylyl) [R2010]
67 | > 100 µM | [Nva]CEP[Phg]CR[Tle]-NH2 (linker 2-6 via mXylyl) [R2030]
68 | > 100 µM | B2

Biological target: T3, Factor XIIa (Enzyme Research …)
Test: cell-based or functional assay

Row | Factor XIIa IC50 | Binder
69 | > 100 µM | MCESICRV-NH2 (linker 2-6 via mXylyl) [R2006]
70 | > 100 µM | B1
71 | > 100 µM | Ac-CAS[Phg]CR[Tle]-NH2 (linker 1-5 via mXylyl) [R2036]
72 | > 100 µM | Heptanoyl-CESICRV-NH2 (linker 1-5 via mXylyl) [R2041]
73 | > 100 µM | MCNYWSPWTECSA-NH2 (cysteine pairing not given here) [R2104]
74 | > 100 µM | MCESICR[Tle]-NH2 (linker 2-6 via mXylyl) [R2010]
75 | > 100 µM | [Nva]CEP[Phg]CR[Tle]-NH2 (linker 2-6 via mXylyl) [R2030]
76 | > 100 µM | B2

Biological target: plasmin (Enzyme Research Laboratories) (human, UniProt P00747 97-810, limits assumed)
Test: cell-based or functional assay

Chain of plasmin (Enzyme Research Laboratories) (P00747 97-810 limits assumed): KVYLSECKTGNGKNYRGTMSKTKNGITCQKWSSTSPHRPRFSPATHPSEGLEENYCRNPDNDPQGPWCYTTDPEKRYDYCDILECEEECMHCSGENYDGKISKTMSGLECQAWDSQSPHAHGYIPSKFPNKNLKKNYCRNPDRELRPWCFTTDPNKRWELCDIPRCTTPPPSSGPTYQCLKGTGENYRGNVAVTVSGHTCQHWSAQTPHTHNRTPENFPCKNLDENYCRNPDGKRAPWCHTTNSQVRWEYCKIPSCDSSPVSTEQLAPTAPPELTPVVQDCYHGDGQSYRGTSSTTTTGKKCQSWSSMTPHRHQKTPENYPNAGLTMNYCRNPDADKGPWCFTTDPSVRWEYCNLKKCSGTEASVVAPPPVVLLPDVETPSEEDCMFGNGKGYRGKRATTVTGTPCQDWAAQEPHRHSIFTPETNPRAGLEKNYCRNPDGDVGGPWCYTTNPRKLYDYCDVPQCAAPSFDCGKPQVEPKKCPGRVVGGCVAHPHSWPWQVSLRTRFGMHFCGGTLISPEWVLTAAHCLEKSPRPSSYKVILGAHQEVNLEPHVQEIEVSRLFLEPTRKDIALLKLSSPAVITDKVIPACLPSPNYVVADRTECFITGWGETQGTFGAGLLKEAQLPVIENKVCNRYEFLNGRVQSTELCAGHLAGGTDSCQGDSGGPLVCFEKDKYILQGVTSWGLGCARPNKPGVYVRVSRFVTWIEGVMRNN

Row | Plasmin IC50 | Binder
77 | > 100 µM | MCESICRV-NH2 (linker 2-6 via mXylyl) [R2006]
78 | > 100 µM | B1
79 | > 19.5 µM | Ac-CAS[Phg]CR[Tle]-NH2 (linker 1-5 via mXylyl) [R2036]
80 | > 100 µM | Heptanoyl-CESICRV-NH2 (linker 1-5 via mXylyl) [R2041]
81 | 5.8 µM | MCNYWSPWTECSA-NH2 (cysteine pairing not given here) [R2104]
82 | > 100 µM | MCESICR[Tle]-NH2 (linker 2-6 via mXylyl) [R2010]
83 | > 100 µM | [Nva]CEP[Phg]CR[Tle]-NH2 (linker 2-6 via mXylyl) [R2030]
84 | > 100 µM | B2
